Measured values published in US12098176B2, “Keratin BD-4, preparation method, and pharmaceutical composition and use thereof” (Institute of Materia Medica, Chinese Academy of Medical …, priority 2019, dated 2024).

Legend:
[1] = system: lipopolysaccharide (LPS) induced fever in rats; assay: Lipopolysaccharide (LPS) induced fever in SD rats; assay type: in vivo, rat; settings: for Body temperature 2 hours after modeling: 2 h after LPS 20 μg/kg i.p.; for Body temperature 4 hours after modeling: 4 h after LPS 20 μg/kg i.p.; for Body temperature 6 hours after modeling: 6 h after LPS 20 μg/kg i.p.; for Body temperature 8 hours after modeling: 8 h after LPS 20 μg/kg i.p.
Experimental: Experimental example 2 The pharmacodynamic test of protein BD-4 (Example 4 protein) on lipopolysaccharide (LPS) induced fever in SD rats.
Experiment Grouping: • Model group: lipopolysaccharide fever model; • Positive control group: Aspirin 300 mg/kg group, • Protein BD-4, 10 mg/kg group, 50 mg/kg group. Method: the method of intraperitoneal injection of Lipopolysaccharide to create fever model in rats.
Preparation of experimental animals: After the experimental animals adapt to the experimental environment (temperature 22° C.±2° C., relative humidity 50%±2%) for 1 day. Pre-adaptation to measure rectal temperature at 8:00 and 15:00, Rats were fasted and water was taken freely 12 h before experiment. before the experiment, let the animal to empty its feces before measuring the rectal temperature. Apply petroleum jelly to the electronic thermometer probe before each temperature measurement. Insert the rat rectum 2 cm (can be marked at 2 cm to ensure that the depth of each insertion is consistent), and record the body temperature after the reading is stable.
Intraperitoneal injection of lipopolysaccharide to replicate rat fever model: The body temperature of the rats was measured before modeling. Qualified rats with a body temperature of 36.2-37.3° C. were selected and randomly divided into groups with 8 rats in each group. After oral administration of aspirin and different doses of protein BD-4, lipopolysaccharide (20 μg/kg, 2 ml/kg) was injected intraperitoneally immediately, and the normal control group was injected intraperitoneally with an equal volume of normal saline. the rats' body temperature was monitored after 2 hours for a total of 8 hours.
According to the body temperature measured at each time point on the day of the experiment, calculate the mean, standard deviation and standard error of the body temperature of each group of rats. The data of each group was compared with TTEST, and P<0.05 was considered as a significant difference.

[2] = system: PLO-induced epilepsy in mice; assay: Pilocarpine (PLO) induced convulsive epilepsy in mice; assay type: in vivo, mouse; settings: for Grade IV seizure rate / mortality rate: 10 mice; for Grade IV seizure rate / mortality rate / Number of deaths / Number of Grade IV cases: PLO 225 mg/kg i.p.; for Number of deaths / Number of Grade IV cases: of 10 mice; for Number of Grade IV cases: 30 min observation; for Level II onset incubation period / Level III onset incubation period / Level IV onset incubation period: mean ± SEM; for Level IV onset incubation period: no grade IV attack recorded as 1800 s
Experimental: Experimental example 3 The pharmacodynamic test of protein BD-4 (Example 4 protein) on convulsive epilepsy in mice caused by the convulsion agent Pilocarpine (PLO)
Model group: • Diazepam (Diazepam) 2 mg/kg group; • Protein BD-4, 50 mg/kg group, 200 mg/kg group. Method: Model Preparation and Administration:
The drug was administered once in the afternoon the day before modeling, PLO-225 mg/kg (modeling agent) was injected intraperitoneally 1 hour after the test drug was given to the stomach on the day of modeling. And positive drug can be administered once 20 minutes before modeling. Observe for 30 minutes after PLO injection.
Observation indicators: 1) Seizure situation: the time of seizures from grade II to grade IV; 2) the time to death.
Attack level: Refer to Racine grading standard: Level 0: No response; Grade I: manifested as twitching of facial muscles or the corners of the mouth; Level II: can nod; Level III: Twitching of one limb; Grade IV: rigidity or body twitching; Grade V: generalized epilepsy (generalized tonic seizures).
Count the number of grade IV seizures and deaths in each group of mice in the experiment; Level II, III and IV incubation period. […] Chi-square test was used for statistics of the number of cases. The mean value and standard error of the incubation period were calculated, and TTEST was used to compare the model group with other groups. P<0.05 was considered as a significant difference.

[3] = system: mice cough induced by ammonia water; assay: Antitussive test, cough induced by ammonia water in mice; assay type: in vivo, mouse; settings: for Incubation period: cough latency; for Incubation period / Number of coughs: X ± SEM; for Number of coughs: within 2 minutes
Experimental: Experimental example 6 The effect of protein BD-4 (Example 4 protein) on the antitussive effect of the cough induced by ammonia water in mice. Animals: male ICR mice; Drugs and reagents: dextromethorphan hydrobromide, ammonia, 0.2% CMC-Na, protein BD-4; Apparatus: Compressed nebulizer (403T type), balance (XS105DU type). Experiment Grouping: • Solvent control group; • Dextromethorphan 15 mg/kg group; • Protein BD-4, 20 mg/kg group, 50 mg/kg group. Method: Model Preparation and Administration:
Dextromethorphan and different doses of protein BD-4 (administration volume 10 ml/kg) were given orally in groups, and the solvent control group was given the same volume of distilled water. One hour later, it was put into a sealed box and atomized 10% ammonia water for 10 seconds, and then observed and recorded the incubation period of cough in mice and the number of coughs in 2 minutes.
Record the time point of oral administration, the time point of atomization experiment, the incubation period of mice cough and the number of coughs within 2 minutes, respectively. The incubation period of cough refers to the number of seconds from the start of the atomization of ammonia to the occurrence of cough. The performance of coughing in mice is based on contraction of their abdominal muscles (breast contraction) and opening their mouths at the same time. Calculate the mean and standard error of each group of data, use TTEST to compare the model group with other groups, and P<0.05 is considered as a significant difference.

B1: BD-4: recombinant keratin, amino acid sequence SEQ ID NO: 1, expressed in E. coli; the protein of Example 4 was tested (protein, listed as Bos taurus)
chain: MSYSCCLPNLSFRSSCSSRPCVPSSCCGTTLPGACNIPANVGSCNWFCEGSFNGSEKETMQFLNDRLASYLEKVRQLERDNAELESRILERSQQQEPLVCPNYQSYFRTIEELQQKILCSKSENARLVVQIDNAKLASDDFRTKYETEVSLRQLVEADLNGLRRILDELTLCKSDLEARVESLKEELICLKQNHEQEVNTLRSQLGDRLNVEVDAAPTVDLNRVLNETRAQYEALVETNRRDVEEWYIRQTEELNKQVVSSSEQLQSYQAEIIELRRTVNALEVELQAQHNLRDSLENTLTETEARYSCQLAQVQGLIGNVESQLAEIRSDLERQNQEYQVLLDVRARLECEINTYRGLLDSEDCKLPCNPCATTNACERPCISNPCVSRARCGPCNTFVH
With B1 the “Effect on body temperature of model rats” value ([1]; 10 mg/kg and 50 mg/kg, after modeling) was “tendency to lower the body temperature of model rats after modeling, but it is not statistically significant”, the “Body temperature 2 hours after modeling” value ([1]; 10 mg/kg oral) was 37.7 ± 0.1 °C and the “Body temperature 4 hours after modeling” value ([1]; 10 mg/kg oral) was 37.8 ± 0.l. For the same molecule, the “Body temperature 6 hours after modeling” value ([1]; 10 mg/kg oral) was 37.8 ± 0.2 °C, the “Body temperature 8 hours after modeling” value ([1]; 10 mg/kg oral) was 37.5 ± 0.2 °C and the “Body temperature 2 hours after modeling” value ([1]; 50 mg/kg oral) was 37.6 ± 0.2 °C. The “Body temperature 4 hours after modeling” value ([1]; 50 mg/kg oral) was 37.7 ± 0.2 °C, the “Body temperature 6 hours after modeling” value ([1]; 50 mg/kg oral) was 37.6 ± 0.2 °C and the “Body temperature 8 hours after modeling” value ([1]; 50 mg/kg oral) was 37.5 ± 0.1 °C. The “Epilepsy grade II incubation period, comparison with model group” value ([2]; 50 mg/kg) was “statistically different from the model group”, the “Epilepsy grade III incubation period, comparison with model group” value ([2]; 50 mg/kg) was “statistically different from the model group” and the “Grade IV seizure rate” value ([2]; 50 mg/kg gavage) was 70%. The mortality rate ([2]; 50 mg/kg gavage) was 0, the Number of deaths ([2]; 50 mg/kg gavage) was 0 and the “Number of Grade IV cases” value ([2]; 50 mg/kg gavage) was 7. For the same molecule, the “Level II onset incubation period” value ([2]; 50 mg/kg) was 95 ± 3 s, the “Level III onset incubation period” value ([2]; 50 mg/kg) was 162 ± 5 s and the “Level IV onset incubation period” value ([2]; 50 mg/kg) was 974 ± 192 s. For the same molecule, the “Epilepsy grade III incubation period, comparison with model group” value ([2]; 200 mg/kg) was “statistically different from the model group”, the “Grade IV seizure rate” value ([2]; 200 mg/kg gavage) was 90% and the mortality rate ([2]; 200 mg/kg gavage) was 10%. The Number of deaths ([2]; 200 mg/kg gavage) was 1, the “Number of Grade IV cases” value ([2]; 200 mg/kg gavage) was 9 and the “Level II onset incubation period” value ([2]; 200 mg/kg) was 95 ± 6 s. The “Level III onset incubation period” value ([2]; 200 mg/kg) was 184 ± 17 s, the “Level IV onset incubation period” value ([2]; 200 mg/kg) was 765 ± 135 s and the Incubation period ([3]; 20 mg/kg oral) was 34.0 ± 2.4 s. For the same molecule, the Number of coughs ([3]; 20 mg/kg oral) was 55.9 ± 3.5, the “Cough incubation period vs solvent control group” value ([3]; 20 mg/kg, P<0.05) was “significant improvement” and the “Number of coughs vs solvent control group” value ([3]; 20 mg/kg, P<0.05) was “significant improvement”. The Incubation period ([3]; 50 mg/kg oral) was 33.2 ± 3.9 s, the Number of coughs ([3]; 50 mg/kg oral) was 62.1 ± 3.7 and the “Number of coughs vs solvent control group” value ([3]; 50 mg/kg, P<0.05) was “significant improvement”.
